Residue numbers refer to the chain shown, from its start.
B1: 1C07 anti-DLL3 trispecific protein (other)
chain: EVQLVESGGGLVQPGGSLTLSCVASGSTSSINAMAWYRRAPGKQRELVAGISSDGSKVYADSVKGRFTISRDNAKNSVYLQMNSLRAEDTAVYYCYYFRTVSGSSMRYWGQGTLVTVSS
notes: not shown: linker 1808, anti-albumin sdAb, linker 1808, anti-CD3 fragment, His6 1819
B2: 1B05 anti-DLL3 trispecific protein (other)
chain: B1 chain with F98Y
notes: as for B1
B3: 1C08 anti-DLL3 trispecific protein (other)
chain: B1 chain with S30R, A35G, V48P, D61V, S105P
notes: as for B1
B4: 1F05 anti-DLL3 trispecific protein (other)
chain: B1 chain with S29R, A35G, R99H
notes: as for B1
B5: 1C05 anti-DLL3 trispecific protein (other)
chain: B1 chain with S105H
notes: as for B1
B6: 1E012 anti-DLL3 trispecific protein (other)
chain: B1 chain with I31T, A35G, A60V, R107V
notes: as for B1
B7: 1B08 anti-DLL3 trispecific protein (other)
chain: B1 chain with S27T, A35G, A60V, T100F
notes: as for B1
B8: 1C02 anti-DLL3 trispecific protein (other)
chain: B1 chain with A60S, Y108S
notes: as for B1
B9: 1A01 anti-DLL3 trispecific protein (other)
chain: B1 chain with S27F, A35G, K57F, T100H
notes: as for B1
B10: 1E010 anti-DLL3 trispecific protein (other)
chain: B1 chain with T28V, A35G, A60I, S104L
notes: as for B1
B11: 1F02 anti-DLL3 trispecific protein (other)
chain: B1 chain with V48A, G55Q, V63A, R107S
notes: as for B1
B12: 1F08 anti-DLL3 trispecific protein (other)
chain: B1 chain with A60K, T100N
notes: as for B1
B13: 1B04 anti-DLL3 trispecific protein (other)
chain: B1 chain with S27T, A35G, K57L, T100I, S102R
notes: as for B1
B14: 1C01 anti-DLL3 trispecific protein (other)
chain: B1 chain with A35G, A60R, R107G
notes: as for B1
B15: 1B010 anti-DLL3 trispecific protein (other)
chain: B1 chain with S30R, A35G, V101K
notes: as for B1
B16: 1A06 anti-DLL3 trispecific protein (other)
chain: B1 chain with A35G, V48A, K57S, M106K
notes: as for B1
B17: 1C010 anti-DLL3 trispecific protein (other)
chain: B1 chain with S30R, A35G, I51V, R107S
notes: as for B1
B18: 1D09 anti-DLL3 trispecific protein (other)
chain: B1 chain with A60T, V101I
notes: as for B1
B19: 1D01 anti-DLL3 trispecific protein (other)
chain: B1 chain with S30D, A35G, G55K, S102R
notes: as for B1
B20: 1C04 anti-DLL3 trispecific protein (other)
chain: B1 chain with S27N
notes: as for B1
B21: 1F09 anti-DLL3 trispecific protein (other)
chain: B1 chain with S27N, A35G, D54N, S102T
notes: as for B1
B22: 1E09 anti-DLL3 trispecific protein (other)
chain: B1 chain with A60T, V101R
notes: as for B1
B23: 1B011 anti-DLL3 trispecific protein (other)
chain: B1 chain with S30R, A35G, S102Y
notes: as for B1
B24: 1D04 anti-DLL3 trispecific protein (other)
chain: B1 chain with I31K, A35G, S104A
notes: as for B1
B25: 1D010 anti-DLL3 trispecific protein (other)
chain: B1 chain with I31N, A60T, V101R
notes: as for B1
B26: 1F07 anti-DLL3 trispecific protein (other)
chain: B1 chain with A35G, Y59D
notes: as for B1
B27: 1D011 anti-DLL3 trispecific protein (other)
chain: B1 chain with G55N, S104H
notes: as for B1
B28: 1F01 anti-DLL3 trispecific protein (other)
chain: B1 chain with A35G, A60G, G103R
notes: as for B1
B29: 1E07 anti-DLL3 trispecific protein (other)
chain: B1 chain with A60N, S102R, M106Q
notes: as for B1
B30: 1C012 anti-DLL3 trispecific protein (other)
chain: B1 chain with S27I, A35G, D61G, S102R
notes: as for B1
B31: 1A07 anti-DLL3 trispecific protein (other)
chain: B1 chain with T28I, A35G, T100M
notes: as for B1
B32: 1F04 anti-DLL3 trispecific protein (other)
chain: B1 chain with S27G, A35G, A60S, M106A
notes: as for B1
B33: 1D08 anti-DLL3 trispecific protein (other)
chain: B1 chain with S27L, A35G, T100M
notes: as for B1
B34: 1E04 anti-DLL3 trispecific protein (other)
chain: B1 chain with S30R, A33G, A35G, V48P, V58A, V101A, S104T
notes: as for B1
B35: 1D03 anti-DLL3 trispecific protein (other)
chain: B1 chain with M34I, A35G, Y59L, T100I, R107G
notes: as for B1
B36: 1E05 anti-DLL3 trispecific protein (other)
chain: B1 chain with S30V, V48A, D61K, V63A, R99N
notes: as for B1
B37: 1A09 anti-DLL3 trispecific protein (other)
chain: B1 chain with V58L, S102Q
notes: as for B1
B38: 1A010 anti-DLL3 trispecific protein (other)
chain: B1 chain with M34Y, A35G, S102Y
notes: as for B1
B39: 1A04 anti-DLL3 trispecific protein (other)
chain: B1 chain with A35G, A60E
notes: as for B1
B40: 1B01 anti-DLL3 trispecific protein (other)
chain: B1 chain with S30I, A35G, V48A, Y59I, T100R
notes: as for B1
B41: 1B09 anti-DLL3 trispecific protein (other)
chain: B1 chain with A60V
notes: as for B1
B42: 1E02 anti-DLL3 trispecific protein (other)
chain: B1 chain with S27Q, A35G, K57Q, V101K
notes: as for B1
B43: 1A03 anti-DLL3 trispecific protein (other)
chain: B1 chain with M106S
notes: as for B1
B44: 1F010 anti-DLL3 trispecific protein (other)
chain: B1 chain with S30R, A35G, A60K
notes: as for B1
B45: 1A05 anti-DLL3 trispecific protein (other)
chain: B1 chain with T28P, A35G, V48S, S102R, R107S
notes: as for B1
B46: 1E08 anti-DLL3 trispecific protein (other)
chain: B1 chain with S27K, A35G, Y59I, S102L
notes: as for B1
B47: 1E011 anti-DLL3 trispecific protein (other)
chain: B1 chain with S27N, A35G, A60Y, S102R, M106Q
notes: as for B1
B48: 1A012 anti-DLL3 trispecific protein (other)
chain: B1 chain with A60S, S102L
notes: as for B1
B49: 1D06 anti-DLL3 trispecific protein (other)
chain: B1 chain with A35G, G55N, S102H
notes: as for B1
B50: 1C06 anti-DLL3 trispecific protein (other)
chain: B1 chain with S30I, A35G, A60E, T100A
notes: as for B1
B51: 1D012 anti-DLL3 trispecific protein (other)
chain: B1 chain with S30H, A35G, K57R, S104G
notes: as for B1
B52: 1B02 anti-DLL3 trispecific protein (other)
chain: B1 chain with A35G, V58I
notes: as for B1
B53: 1F06 anti-DLL3 trispecific protein (other)
chain: B1 chain with S27T, A35G, Y59I, S102L
notes: as for B1
B54: 1B07 anti-DLL3 trispecific protein (other)
chain: B1 chain with T28G, A35G, A60S, T100H
notes: as for B1
B55: 1B03 anti-DLL3 trispecific protein (other)
chain: B1 chain with S27K, A60T, M106A
notes: as for B1
B56: 1D02 anti-DLL3 trispecific protein (other)
chain: B1 chain with D54N, T100Q
notes: as for B1
B57: 1C011 anti-DLL3 trispecific protein (other)
chain: B1 chain with S27T, A35G, A60E
notes: as for B1

biological target: T1, biotinylated human DLL3 protein expressed as a human IgG1 fusion protein (human, UniProt Q9NYJ7 27-492, limits assumed, biotinylated); assay: Octet BLI, single 50 nM
T1 sequence: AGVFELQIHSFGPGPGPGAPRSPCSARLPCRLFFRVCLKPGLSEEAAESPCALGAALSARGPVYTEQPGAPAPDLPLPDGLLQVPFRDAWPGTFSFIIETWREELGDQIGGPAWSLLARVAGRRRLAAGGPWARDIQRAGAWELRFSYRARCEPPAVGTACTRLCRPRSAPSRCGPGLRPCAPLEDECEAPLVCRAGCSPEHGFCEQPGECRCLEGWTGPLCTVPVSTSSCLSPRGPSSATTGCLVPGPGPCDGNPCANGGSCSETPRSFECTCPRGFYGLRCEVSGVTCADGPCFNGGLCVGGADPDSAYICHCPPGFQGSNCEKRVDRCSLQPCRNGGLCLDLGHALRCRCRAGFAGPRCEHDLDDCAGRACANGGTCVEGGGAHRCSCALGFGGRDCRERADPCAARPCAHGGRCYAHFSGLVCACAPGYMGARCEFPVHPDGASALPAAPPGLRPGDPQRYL
Experimental: Using the conditioned medium with known concentrations of the anti-DLL3 trispecific proteins, the binding affinities of the anti-DLL3 trispecific proteins toward human DLL3 protein were measured using a method where biotinylated version of human DLL3 protein were expressed as a human IgG1 fusion protein, and the binding affinity measurement was carried out in an Octet instrument with streptavidin tips.

Row | Binder | Kd
1 | B1 | 7.1 nM
2 | B2 | 8 nM
3 | B3 | 25 nM
4 | B4 | 5.8 nM
5 | B5 | 5.3 nM
6 | B6 | 5.3 nM
7 | B7 | 12 nM
8 | B8 | 6.2 nM
9 | B9 | 7 nM
10 | B10 | 5.7 nM
11 | B11 | 4 nM
12 | B12 | 31 nM
13 | B13 | 11 nM
14 | B14 | 4.3 nM
15 | B15 | 6.8 nM
16 | B16 | 5.6 nM
17 | B17 | 2.5 nM
18 | B18 | 5.2 nM
19 | B19 | 5.8 nM

Row | Binder | Kd
20 | B20 | 8.1 nM
21 | B21 | 35 nM
22 | B22 | 4.4 nM
23 | B23 | 5.7 nM
24 | B24 | 9.7 nM
25 | B25 | 5 nM
26 | B26 | 13 nM
27 | B27 | 4.4 nM
28 | B28 | 9.4 nM
29 | B29 | 7.1 nM
30 | B30 | 8.5 nM
31 | B31 | 8.6 nM
32 | B32 | 10 nM
33 | B33 | 10 nM
34 | B34 | 8.1 nM
35 | B35 | 5.8 nM
36 | B36 | 14 nM
37 | B37 | 6.6 nM
38 | B38 | 6.5 nM

Row | Binder | Kd
39 | B39 | 7.8 nM
40 | B40 | 5.2 nM
41 | B41 | 5.4 nM
42 | B42 | 7 nM
43 | B43 | 6.3 nM
44 | B44 | 6.3 nM
45 | B45 | 4 nM
46 | B46 | 9.4 nM
47 | B47 | 2.7 nM
48 | B48 | 4.9 nM
49 | B49 | 6.8 nM
50 | B50 | 8.3 nM
51 | B51 | 9.3 nM
52 | B52 | 11 nM
53 | B53 | 8.9 nM
54 | B54 | 8.9 nM
55 | B55 | 8.7 nM
56 | B56 | 14 nM
57 | B57 | 7.6 nM

— patent US20240141072A1 (published 2024)
